In patent US20140220040A1 (ARCA BIOPHARMA, published 2014):
Positions count from the first letter of the chain named.

T1: Human LRP6-Fc (R&D Systems), recombinant human LRP6 containing the complete extracellular domain (human, UniProt O75581 20-1370)
T1 construct: Bought protein; also called hLRP6; Fc-antigen; not shown: Fc part of the bought fusion protein
T1 sequence: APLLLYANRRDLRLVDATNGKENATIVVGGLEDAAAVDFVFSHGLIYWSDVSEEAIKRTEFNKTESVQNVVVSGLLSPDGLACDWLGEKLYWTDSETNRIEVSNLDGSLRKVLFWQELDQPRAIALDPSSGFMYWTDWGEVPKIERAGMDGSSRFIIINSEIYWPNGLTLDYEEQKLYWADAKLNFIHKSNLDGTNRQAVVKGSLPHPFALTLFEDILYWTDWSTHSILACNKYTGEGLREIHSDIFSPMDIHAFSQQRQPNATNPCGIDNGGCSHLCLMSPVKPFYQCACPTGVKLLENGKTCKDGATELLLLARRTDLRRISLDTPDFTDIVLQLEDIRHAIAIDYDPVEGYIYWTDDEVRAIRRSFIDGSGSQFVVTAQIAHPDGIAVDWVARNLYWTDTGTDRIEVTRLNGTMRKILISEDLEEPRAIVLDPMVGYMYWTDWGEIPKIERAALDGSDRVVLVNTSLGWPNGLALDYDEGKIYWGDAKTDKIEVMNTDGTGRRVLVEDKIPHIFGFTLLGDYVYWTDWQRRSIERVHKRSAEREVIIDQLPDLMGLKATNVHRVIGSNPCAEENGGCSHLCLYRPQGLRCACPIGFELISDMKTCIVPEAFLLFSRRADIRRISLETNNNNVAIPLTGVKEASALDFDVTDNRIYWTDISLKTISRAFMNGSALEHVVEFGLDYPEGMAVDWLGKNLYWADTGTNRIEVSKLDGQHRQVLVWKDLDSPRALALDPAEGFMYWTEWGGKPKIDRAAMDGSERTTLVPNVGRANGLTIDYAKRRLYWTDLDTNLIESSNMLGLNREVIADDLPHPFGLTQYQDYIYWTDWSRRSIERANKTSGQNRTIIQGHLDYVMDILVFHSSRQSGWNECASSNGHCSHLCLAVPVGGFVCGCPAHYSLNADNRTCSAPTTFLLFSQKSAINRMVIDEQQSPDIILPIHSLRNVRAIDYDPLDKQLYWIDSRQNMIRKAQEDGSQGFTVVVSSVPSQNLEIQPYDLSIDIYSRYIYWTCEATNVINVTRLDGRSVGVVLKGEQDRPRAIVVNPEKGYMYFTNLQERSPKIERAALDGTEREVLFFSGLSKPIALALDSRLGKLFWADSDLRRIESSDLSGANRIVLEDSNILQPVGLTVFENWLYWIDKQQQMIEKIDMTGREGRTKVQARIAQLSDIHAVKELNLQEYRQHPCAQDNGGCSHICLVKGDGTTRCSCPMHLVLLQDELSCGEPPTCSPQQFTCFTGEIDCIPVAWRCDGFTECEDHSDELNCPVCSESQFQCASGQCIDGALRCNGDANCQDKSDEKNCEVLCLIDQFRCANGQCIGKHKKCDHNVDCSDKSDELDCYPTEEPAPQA

B1: anti-LRP6 monoclonal antibody 931.1 (antibody, V domains shown)
VH: DVNLVESGGGLVKLGGSLKLSCAASGFTFSSFYMSWVRQTPEKRLDLVATINTNGGSTYYSDTVKGRFTISRDNAKNTLYLQMNSLKSEDTALFYCVRQPYYGGTMDYWGQGTSVTVSS
VL: DIVLTQSPATLSVTPGDRVSLSCRASQSINNNLHWYQQKSHESPRLLIKYASQSISGIPSRFSGSGSGTDFTLSINSVETEDFGMYFCQQTNNWPLTFGAGTKLEL
notes: Murine hybridoma mAb, protein G purified; also called VH13/VL13
B2: anti-LRP6 monoclonal antibody 498.3 (antibody, V domains shown)
VH: DVKLVESGGGLVRLGGSLKLSCAASGFTFSTYYMSWVRQTPEKRLELVATINTNGGSTYYPDTLKGRFTISRDNAKNTLYLQMSSLRSEDTALYYCARQRNYGVAVDSWGQGTSVTVSS
VL: B1 VL with R18S, N30S, L106R
notes: Murine hybridoma mAb, protein G purified; also called VH7/VL7
B3: anti-LRP6 monoclonal antibody 1115.3 (antibody, V domains shown)
VH: DVKLVESGGGLVKLGGSLRLSCAASGFSFSTSYMSWVRQTPEKRLELVAAINLNGGSTYYSDTVKGRFTISRDNAKNTLYLQMSSLKSEDTAFYYCASELAGYGTPFAYWGQGTLVTVSA
VL: B1 VL with R18S, R24K, N30S, A51T, S74T, S77N, T91S, N93S, L106V
notes: Murine hybridoma mAb, protein G purified; also called VH16/VL16
B4: anti-LRP6 monoclonal antibody 240.8 (antibody, V domains shown)
VH: B3 VH with R19K, S28T, T31S, S32Y, L53S, S61A, V64M, S84I, Q112H
VL: B1 VL with S7F, R18S, N30S, N31S, K39T, S65T, T91S, N93T
notes: Murine hybridoma mAb, protein G purified; also called VH4/VL4
B5: anti-LRP6 monoclonal antibody 213.7 (antibody, V domains shown)
VH: DVKLVESGGGLVKVGGSLKLSCAASGFTFSSYYMSWVRQTPEKRLELVAVINTNGGSTYYSDTVKGRFTISRDNAKNTLYLQMSSLKSEDTALYYCSRQPYYGNPFDYWGQGTTLTVSS
VL: B1 VL with R18S, N30S, A51V, T91S
notes: Murine hybridoma mAb, protein G purified; also called VH3/VL3
B6: anti-LRP6 monoclonal antibody 1213.2 (antibody, V domains shown)
VH: B1 VH
VL: B1 VL
notes: Murine hybridoma mAb, protein G purified; also called VH17/VL17
B7: anti-LRP6 monoclonal antibody 923.3 (antibody, V domains shown)
VH: B3 VH with L14V, R19K, S28T, T31S, S32Y, L53I, S61P
VL: B1 VL with R18S, N30S, T91S
notes: Murine hybridoma mAb, protein G purified; also called VH12/VL12
B8: anti-LRP6 monoclonal antibody 606.4 (antibody, V domains shown)
VH: B5 VH with T53S, D62E
VL: B1 VL with R18S, N30S, A51V, T91S
notes: Murine hybridoma mAb, protein G purified; also called VH9/VL9
B9: anti-LRP6 monoclonal antibody 413.1 (antibody, V domains shown)
VH: EIQLQQSGPELVKPGASVKVSCKASGYAFTSYNMYWVKQSHGKGLEWIGYIDPYNGGTDSNQNFKGKATLTVDKSSSTAFMHLNSLTSEDSAVYYCARGGMGLRRDHFDYWGQGTSLTVSS
VL: QIVLTQSPAIMSASPGEKVTISCSANSSVRYMFWYQQKPGSFPKPWTYRTSNLASGVPARFSGSGSGTSYSLTISSMEAEDVATYYCQQYHSYPWTFGGGTKLEI
notes: Murine hybridoma mAb, protein G purified; also called VH5/VL5
B10: anti-LRP6 monoclonal antibody 421.1 (antibody, V domains shown)
VH: QVQLQQSGPELVKPGASVRISCKASGYTFTTYYIHWLKQRPGQGLEWIGWIFPGNVNTKYNAKFKGKATLTADKSSSTAYMQLSSLTSEDSAVYFCAREELQYYFDYWGQGSTLTVSS
VL: B9 VL with Y31F, F42S, W46L, T47I, S64C, V82A
notes: Murine hybridoma mAb, protein G purified; also called VH6/VL6
B11: anti-LRP6 monoclonal antibody 620.1 (antibody, V domains shown)
VH: B9 VH with G44S, D59N, S60Y, N63K, F80Y, H107Y, Y110F, S116T
VL: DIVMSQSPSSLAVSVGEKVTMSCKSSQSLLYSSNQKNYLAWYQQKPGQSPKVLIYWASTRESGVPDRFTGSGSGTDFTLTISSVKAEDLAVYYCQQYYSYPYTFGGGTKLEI
notes: Murine hybridoma mAb, protein G purified; also called VH10/VL10
B12: anti-LRP6 monoclonal antibody 537.2 (antibody, V domains shown)
VH: DVQLQESGPGLVKPSQSLSLTCSVTGYSITSGYYWNWIRQFPGDKLEWMGHINYDGRDNYNPSLKNRISITRDTSKNQFFLKLNSVTTEDTATYYCAREFGNFPYYFDYWGQGTTLTVSS
VL: B9 VL with N26Y, Y31F, F42S, W46L, T47I, P58S, V82A
notes: Murine hybridoma mAb, protein G purified; also called VH8/VL8
B13: anti-LRP6 monoclonal antibody 856.6 (antibody, V domains shown)
VH: B10 VH with E100G, S112T
VL: B9 VL with Y31F, F42S, W46L, T47I, V82A
notes: Murine hybridoma mAb, protein G purified; also called VH11/VL11
B14: anti-LRP6 monoclonal antibody 1293.11 (antibody, V domains shown)
VH: B10 VH with T113A
VL: B9 VL with Y31F, F42S, W46L, T47I, V82A
notes: Murine hybridoma mAb, protein G purified; also called VH20/VL20
B15: anti-LRP6 monoclonal antibody 1253.12 (antibody, V domains shown)
VH: B10 VH with K13M, T31N, I34L, L37V, F52Y, A62E, T69S, E100G, G109A, S112T
VL: B9 VL with T47I
notes: Murine hybridoma mAb, protein G purified; also called VH18/VL18
B16: anti-LRP6 monoclonal antibody 77.2 (antibody, V domains shown)
VH: QVQLQQSGAELAKPGASVKMSCKASGYTFTSYWMHWVKQRPGQGLEWIGYINPSTGYTEYNQNFRDKATLTADKSSSTANMQLSSLTSEDSAVYYCARTAQYYGSPRGYYAMDSWGQGTSVTVSS
VL: DIVMTQAAFSNPVTLGTSASISCRSSKSLLHSNGITYLCWFLQKPGQSPQLLIYLMSNLASGVPDRFSSSGSGTDFTLRISRVEAEDVGVYFCAQNLDLPWTFGGGTKLEI
notes: Murine hybridoma mAb, protein G purified; also called mAb 77.2; VH1/VL1
B17: anti-LRP6 monoclonal antibody 1433.8 (antibody, V domains shown)
VH: B16 VH with N63K, A97T
VL: MTQAAFSNPVTLGTSASISCRSSKSLLHSNGITYLCWFLQKPGQSPQLLIYLMSNLASGVPDRFSSSGSGTDFTLRISRVEAEDVGVYFCAQNLDLPWTFGGGTKLEI
notes: Murine hybridoma mAb, protein G purified; also called VH21/VL21
B18: anti-LRP6 monoclonal antibody 1281.1 (antibody, V domains shown)
VH: B16 VH with M20I, S54N, T58S, N63K, D73N, E89D
VL: B16 VL with L55Q
notes: Murine hybridoma mAb, protein G purified; also called VH19/VL19

Biological target: T1, Human LRP6-Fc (R&D Systems), …
Assay: SPR (BIAcore), mAb captured on anti-mouse chip, Fc-antigen injected, 1:1 model
Protocol: Kinetic rate constants (kₐ and kd) were determined using surface plasmon resonance, and affinities (KD) were then calculated from the rate constants (kd/kₐ). Surface plasmon resonance was carried out on a BIAcore system (Biacore International AB, Uppsala, Sweden). Each murine anti-LRP6 mAb sample was diluted 100 fold and captured onto an anti-mouse sensor chip surface. The running buffer contained 10 mM HEPES, 150 mM NaCl, 0.005% Tween-20 and 0.1 mg/ml BSA. Following the capturing step, the Fc-antigen was injected at 45 nM as the highest concentration in a 3-fold dilution series. The association and dissociation phases were monitored for 8 and 60 minutes, respectively. The antigen response data were fit into a 1:1 interaction model.

Row | Binder | Kd [nM] | koff [s⁻¹] | kon [M⁻¹ s⁻¹]
1 | B1 | 1.12 | 6.3e-05 | 56300
2 | B2 | 0.98 | 5e-05 | 50500
3 | B3 | 1.45 | 5.34e-05 | 36800
4 | B4 | 6.55 | 4e-05 | 6110
5 | B5 | 1.72 | 9.6e-05 | 55600
6 | B6 | 1.07 | 6.3e-05 | 58800
7 | B7 | 2.33 | 7.4e-05 | 31600
8 | B8 | 1.08 | 5.7e-05 | 53200
9 | B9 | 18 | 8.47e-05 | 4700
10 | B10 | 3.2 | 0.000114 | 35400
11 | B11 | 1.73 | 7.7e-05 | 44600
12 | B12 | 0.9 | 3.15e-05 | 35200
13 | B13 | 0.95 | 4.5e-05 | 47400
14 | B14 | 57 | 0.000124 | 2200
15 | B15 | 2.15 | 7.3e-05 | 34000
16 | B16 | 0.55 | 3.5e-05 | 63200
17 | B17 | 1.68 | 7.7e-05 | 45600
18 | B18 | 1.83 | 8.3e-05 | 45500
